Measured values reported in patent US20110151530.

Test system: IcmBmp, icmB gene product of Methylibium petroleiphilum (subunit of hydroxyisobutyryl-CoA mutase)

B1: IcmAmp, icmA gene product of Methylibium petroleiphilum (subunit of hydroxyisobutyryl-CoA mutase) (enzyme)
chain: MTWLEPQIKSQLQSERKDWEANEVGAFLKKAPERKEQFHTIGDFPVQRTYTAADIADTPLEDIGLPGRYPFTRGPYPTMYRSRTWTMRQIAGFGTGEDTNKRFKYLIAQGQTGISTDFDMPTLMGYDSDHPMSDGEVGREGVAIDTLADMEALLADIDLEKISVSFTINPSAWILLAMYVALGEKRGYDLNKLSGTVQADILKEYMAQKEYIYPIAPSVRIVRDIITYSAKNLKRYNPINISGYHISEAGSSPLQEAAFTLANLITYVNEVTETGMHVDEFAPRLAFFFVSQGDFFEEVAKFRALRRCYAKIMKERFGAKNPESMRLRFHCQTAAATLTKPQYMVNVVRTSLQALSAVLGGAQSLHTNGYDEAFAIPTEDAMKMALRTQQIIAEESGVADVIDPLGGSYYVEALTTEYEKKIFEILEEVEKRGGTIKLIEQGWFQKQIADFAYETALRKQSGQKPVIGVNRFVENEEDVKIEIHPYDNTTAERQISRTRRVRAERDEAKVQAMLDQLVAVAKDESQNLMPLTIELVKAGATMGDIVEKLKGIWGTYRETPVF
For B1, the Activity of purified enzyme (mUI/mg): Hydroxyisobutyryl-CoA mutase (with 3-Hydroxybutyryl-CoA 1 mM in aerobic conditions) was 2 mUI/mg, the Activity of purified enzyme (mUI/mg): Hydroxyisobutyryl-CoA mutase (with 3-Hydroxybutyryl-CoA 1 mM in anaerobic conditions) was 46 mUI/mg and the Activity of purified enzyme (mUI/mg): Hydroxyisobutyryl-CoA mutase (with 3-Hydroxybutyryl-CoA 10 mM in anaerobic conditions) was 223 mUI/mg.
